Test results as given in paper PMC10746525, “Interaction between the mitochondrial adaptor MIRO and the motor adaptor TRAK” (The Journal of Biological Chemistry, 2023).

B2: MIRO1_(177-591) (domain or fragment, human, UniProt Q8IXI2 177-591, looked up)
chain: EEKEMKPACIKALTRIFKISDQDNDGTLNDAELNFFQRICFNTPLAPQALEDVKNVVRKHISDGVADSGLTLKGFLFLHTLFIQRGRHETTWTVLRRFGYDDDLDLTPEYLFPLLKIPPDCTTELNHHAYLFLQSTFDKHDLDRDCALSPDELKDLFKVFPYIPWGPDVNNTVCTNERGWITYQGFLSQWTLTTYLDVQRCLEYLGYLGYSILTEQESQASAVTVTRDKKIDLQKKQTQRNVFRCNVIGVKNCGKSGVLQALLGRNLMRQKKIREDHKSYYAINTVYVYGQEKYLLLHDISESEFLTEAEIICDVVCLVYDVSNPKSFEYCARIFKQHFMDSRIPCLIVAAKSDLHEVKQEYSISPTDFCRKHKMPPPQAFTCNTADAPSKDIFVKLTTMAMYPHVTQADLKSST
notes: Cloned into pETDuet-1; As purified it held 37.0% GDP and 63.0% GTP; samples exchanged with GDP or GTP were also used; also called MIRO1 EF-hands and cGTPase; source: E. coli ArcticExpress(DE3), purified (Ni-NTA, SourceQ flowthrough)
B3: MBP-TRAK1_(342-431) (domain or fragment, human, UniProt Q9UPV9 342-431, looked up)
chain: EAQEELKNLRNKTMPNTTSRRYHSLGLFPMDSLAAEIEGTMRKELQLEEAESPDITHQKRVFETVRNINQVVKQRSLTPSPMNIPGSNQS
notes: GCN4 of m5 replaced with MBP; Cloned into pMAL-c6T; source: E. coli ArcticExpress(DE3), purified (amylose, Strep-Tactin); not shown: MBP, N-terminal, kept
B6: MIRO1_(1-591) (domain or fragment, human, UniProt Q8IXI2 1-591, looked up)
chain: MKKDVRILLVGEPRVGKTSLIMSLVSEEFPEEVPPRAEEITIPADVTPERVPTHIVDYSEAEQSDEQLHQEISQANVICIVYAVNNKHSIDKVTSRWIPLINERTDKDSRLPLILVGNKSDLVEYSSMETILPIMNQYTEIETCVECSAKNLKNISELFYYAQKAVLHPTGPLYCPEEKEMKPACIKALTRIFKISDQDNDGTLNDAELNFFQRICFNTPLAPQALEDVKNVVRKHISDGVADSGLTLKGFLFLHTLFIQRGRHETTWTVLRRFGYDDDLDLTPEYLFPLLKIPPDCTTELNHHAYLFLQSTFDKHDLDRDCALSPDELKDLFKVFPYIPWGPDVNNTVCTNERGWITYQGFLSQWTLTTYLDVQRCLEYLGYLGYSILTEQESQASAVTVTRDKKIDLQKKQTQRNVFRCNVIGVKNCGKSGVLQALLGRNLMRQKKIREDHKSYYAINTVYVYGQEKYLLLHDISESEFLTEAEIICDVVCLVYDVSNPKSFEYCARIFKQHFMDSRIPCLIVAAKSDLHEVKQEYSISPTDFCRKHKMPPPQAFTCNTADAPSKDIFVKLTTMAMYPHVTQADLKSST
notes: Cloned into pRSFDuet-1; also called mitochondrial Rho GTPase 1, near full-length construct lacking the C-terminal transmembrane helix; source: E. coli ArcticExpress(DE3), purified (Ni-NTA, Strep-Tactin)

Experiments:
[1] = biological target: B6; assay: co-sedimentation; 5-30% glycerol gradient, proteins mixed at 4 μM each in 20 mM Hepes pH 7.5, 500 mM NaCl, 1 mM MgCl2, 1 mM CaCl2, 1 mM DTT, 0.1 μM GTP; 165,000g, 16 h, 4 °C; fractions on SDS-PAGE; conditions: both partners purified
[2] = biological target: B3; assay: ITC; VP-ITC, 25 °C; ITC buffer (20 mM Hepes pH 7.5, 400 mM NaCl, 1 mM MgCl2, 5% w/v sucrose, 0.1 μM GTP) with 5 mM EGTA; the binder of each row in the syringe; conditions: both partners purified
[3] = biological target: B3; assay: ITC; VP-ITC, 25 °C; ITC buffer (20 mM Hepes pH 7.5, 400 mM NaCl, 1 mM MgCl2, 5% w/v sucrose, 0.1 μM GTP) with 50 μM CaCl2; MIRO1_(177-591) in the syringe, TRAK1 construct in the cell; conditions: both partners purified
[4] = biological target: B2; assay: ITC; VP-ITC, 25 °C; ITC buffer (20 mM Hepes pH 7.5, 400 mM NaCl, 1 mM MgCl2, 5% w/v sucrose, 0.1 μM GTP) with 5 mM EGTA; the binder of each row in the syringe; conditions: both partners purified
[5] = biological target: T1, MIRO1_(177-591) E208A (human, UniProt Q8IXI2 177-591, E208A); assay: as above; conditions: both partners purified
T1 construct: source: E. coli ArcticExpress(DE3), purified (Ni-NTA, SourceQ flowthrough)

[6] = biological target: T2, MIRO1_(177-591) E328A (human, UniProt Q8IXI2 177-591, E328A); assay: as above; conditions: both partners purified
T2 construct: source: E. coli ArcticExpress(DE3), purified (Ni-NTA, SourceQ flowthrough)

[7] = biological target: B2; assay: ITC; VP-ITC, 25 °C; ITC buffer (20 mM Hepes pH 7.5, 400 mM NaCl, 1 mM MgCl2, 5% w/v sucrose, 0.1 μM GTP) with 50 μM CaCl2; MIRO1_(177-591) in the syringe, TRAK1 construct in the cell; conditions: both partners purified
[8] = biological target: the molecule itself; assay: mass photometry; Refeyn TwoMP, 125-150 nM protein, 100 mM NaCl, 50 μM MgCl2, 50 μM GTP with 1 mM EGTA or 100 μM CaCl2

B1: TRAK1_(99-532) (domain or fragment, human, UniProt Q9UPV9 99-532, looked up)
chain: AERVGQMTKTYNDIDAVTRLLEEKERDLELAARIGQSLLKKNKTLTERNELLEEQVEHIREEVSQLRHELSMKDELLQFYTSAAEESEPESVCSTPLKRNESSSSVQNYFHLDSLQKKLKDLEEENVVLRSEASQLKTETITYEEKEQQLVNDCVKELRDANVQIASISEELAKKTEDAARQQEEITHLLSQIVDLQKKAKACAVENEELVQHLGAAKDAQRQLTAELRELEDKYAECMEMLHEAQEELKNLRNKTMPNTTSRRYHSLGLFPMDSLAAEIEGTMRKELQLEEAESPDITHQKRVFETVRNINQVVKQRSLTPSPMNIPGSNQSSAMNSLLSSCVSTPRSSFYGSDIGNVVLDNKTNSIILETEAADLGNDERSKKPGTPGTPGSHDLETALRRLSLRRENYLSERRFFEEEQERKLQELAEKGE
notes: Cloned into pRSFDuet-1; codon-optimised synthetic cDNA; source: E. coli ArcticExpress(DE3), purified (Strep-Tactin, Ni-NTA)
B1: binds [1].

For B2, the “stoichiometry N” value [2] was 1.09 and the “stoichiometry N” value [3] was 1.11.

For B3, the Kd [4] was 8.77 µM, the binding result [5] was “binds” and the binding result [6] was “binds”. For the same binder, the Kd [7] was 2.76 µM.

B4: MBP-TRAK1_(342-431) ^400KR^401 to AA (domain or fragment, human, UniProt Q9UPV9 342-431, looked up)
chain: EAQEELKNLRNKTMPNTTSRRYHSLGLFPMDSLAAEIEGTMRKELQLEEAESPDITHQAAVFETVRNINQVVKQRSLTPSPMNIPGSNQS
notes: source: E. coli ArcticExpress(DE3), purified (amylose, Strep-Tactin); not shown: MBP, N-terminal, kept
B4: binds [4].

B5: TRAK1_(394-434) (peptide, UniProt Q9UPV9 394-434, looked up)
peptide: PDITHQKRVFETVRNINQVVKQRSLTPSPMNIPGSNQSSAM
notes: Cloned into pMAL-c6T; also called TRAK1 peptide narrowly encompassing CR2; not shown: 6xHis-MBP, N-terminal, cleaved
B5: binds [4].

B6: binds [8].

B7: MBP-MIRO1_(1-180) (domain or fragment, human, UniProt Q8IXI2 1-180, looked up)
chain: MKKDVRILLVGEPRVGKTSLIMSLVSEEFPEEVPPRAEEITIPADVTPERVPTHIVDYSEAEQSDEQLHQEISQANVICIVYAVNNKHSIDKVTSRWIPLINERTDKDSRLPLILVGNKSDLVEYSSMETILPIMNQYTEIETCVECSAKNLKNISELFYYAQKAVLHPTGPLYCPEEKE
notes: human MIRO1, residues 1-180 (nGTPase); Cloned into pMAL-c6T; also called nGTPase of MIRO1 fused to MBP; source: E. coli ArcticExpress(DE3), purified (Strep-Tactin, MonoQ); not shown: MBP, N-terminal, kept
B7: binds [8].
